# Reference: article PMC3692002 (Proteins, 2011)
# Molecular target: the molecule itself
# Assay: static light scattering
protein,measurement,value
"UgR76, uncharacterized 73 residue domain from Ruminococcus gnavus (domain or fragment) MSEHREGTLFYDTETGRYDIRFDLESFYGGLHCGECFDVKVKDVWVPVRIEMGDDWYLVGLNVSRLDGLRVRMLEHHHHHH",stoichiometry N,2
